Each substance was assayed against soluble HA-tagged canine SLAM (UniProt Q95MM9). Details: parent: est. 100; read off a plot.

Substance | percent of parent
CDV H-wt, full length attachment protein (hemagglutinin) H of canine distemper virus strain A75/17, FLAG-tagged D135A | 130 % to control
CDV H-wt, full length attachment protein (hemagglutinin) H of canine distemper virus strain A75/17, FLAG-tagged E130A | 54 % to control
CDV H-wt, full length attachment protein (hemagglutinin) H of canine distemper virus strain A75/17, FLAG-tagged D132A | 98 % to control
CDV H-wt, full length attachment protein (hemagglutinin) H of canine distemper virus strain A75/17, FLAG-tagged R129A | 110 % to control
CDV H-wt, full length attachment protein (hemagglutinin) H of canine distemper virus strain A75/17, FLAG-tagged N126A | 94 % to control
CDV H-wt, full length attachment protein (hemagglutinin) H of canine distemper virus strain A75/17, FLAG-tagged L136A | 70 % to control
CDV H-wt, full length attachment protein (hemagglutinin) H of canine distemper virus strain A75/17, FLAG-tagged H137A | 86 % to control
CDV H-wt, full length attachment protein (hemagglutinin) H of canine distemper virus strain A75/17, FLAG-tagged F133A | 160 % to control
CDV H-wt, full length attachment protein (hemagglutinin) H of canine distemper virus strain A75/17, FLAG-tagged F131A | 93 % to control
CDV H-wt, full length attachment protein (hemagglutinin) H of canine distemper virus strain A75/17, FLAG-tagged P127A | 61 % to control
CDV H-wt, full length attachment protein (hemagglutinin) H of canine distemper virus strain A75/17, FLAG-tagged R134A | 110 % to control
CDV H-wt, full length attachment protein (hemagglutinin) H of canine distemper virus strain A75/17, FLAG-tagged N128A | 84 % to control
CDV H-wt, full length attachment protein (hemagglutinin) H of canine distemper virus strain A75/17, FLAG-tagged W138A | 98 % to control

Reference: PMC4422687
